Publication PMC9018702

Tests used:
[1] = molecular target: T1, MBP-TDR (Oryza sativa (ORF cloned from ZH11), UniProt Q6YUS3 1-552); experiment: EMSA; EMSA: 10 mM Tris-HCl pH 7.5, 50 mM KCl, 5 mM MgCl2, 1 mM DTT, 2.5% glycerol, 0.05% NP-40, 50 ng/uL poly(dI-dC), 10 fmol probe, 1 ug protein in 20 uL, room tempe
[2] = molecular target: T1, MBP-TDR; experiment: competition; 10-, 20-, 100-fold excess unlabeled probe eliminates shift; EMSA: 10 mM Tris-HCl pH 7.5, 50 mM KCl, 5 mM MgCl2, 1 mM DTT, 2.5% glycerol, 0.05% NP-40, 50 ng/uL poly(dI-dC), 10 fmol probe, 1 ug protein in 20 uL, room tempe

| Binder | binding result [1] | binding result [2] |
| --- | --- | --- |
| EAT1 promoter P1 probe (dsDNA) DNA 1: GCGTATCGTGGTCATCTGTCTATTTTACATGCACTTGTAGCTGGATAAA DNA 2: TTTATCCAGCTACAAGTGCATGTAAAATAGACAGATGACCACGATACGC | binds | – |
| EAT1 promoter P1 unlabeled competitor (dsDNA) DNA 1: GCGTATCGTGGTCATCTGTCTATTTTACATGCACTTGTAGCTGGATAAA DNA 2: TTTATCCAGCTACAAGTGCATGTAAAATAGACAGATGACCACGATACGC | – | binds |
